# Where “and” joins values, the source holds several entries; their conditions need not be identical. Equal values may be shown once. Entries after “also recorded” stand apart in the source; their conditions may differ.
# B1: hPTH 1-84: Synthetic human PTH 1-84, the whole 84 amino acid parathyroid hormone (SEQ ID NO:1), PTH agonist, purchased from Bachem (peptide)
# chain: SVSEIQLMHNLGKHLNSMERVEWLRKKLQDVHNFVALGAPLAPRDAGSQRPRKKEDNVLVESHEKSLGEANKADVNVLTKAKSQ
# B2: hPTH 7-84: Synthetic human PTH 7-84 fragment, an exemplary PTH antagonist, obtained from Bachem (peptide)
# peptide: LMHNLGKHLNSMERVEWLRKKLQDVHNFVALGAPLAPRDAGSQRPRKKEDNVLVESHEKSLGEANKADVNVLTKAKSQ
# Legend:
# ROS/17.2 cells = experiment: cAMP production in osteoblastic cell line ROS/17.2; type: cell-based, rat; settings: for intracellular cAMP: 10^-8 mol/L peptide, five-minute incubation, N=6, before treatment 18.1±1.25
# Method: Osteoblastic cell line. To compare the biological effects of the two peptides (HPTH 1-84 and 7-84), intracellular cAMP production was measured in the rate osteosarcoma cell line ROS/17.2, which has an osteoblastic phenotype and is known to increase cAMP production in response to PTH. Cells were cultured in Ham's F12 media containing 10% fetal bovine serum. Cells were plated out in 12 well plates at a density of 30,000 cells per well and grown to confluence. Cells were washed three times with KHMS buffer at 37° C. (KCI 4.0 mmol/L, CaCl2 1.25 mmol/L, MgSO4 1.25 mmol/L, KH2PO4 1.2 mmol/L, HEPES 10 mmol/L, NaCl 100 mmol/L, NaHCO3 37 mmol/L, and glucose 10 mmol/L, pH 7.5). cAMP production was measured using 500 μL of KHMS buffer (37°) containing isobutyl-1 methylxantine (1BMX) 1.0 mmol/L and various concentrations (10^−11 to 10^−8 mol/L) of hPTH 1-84 or hPTH 7-84. After a five-minute incubation, 100 μL of 1.8 mol/L pechloric acid were added. After an additional five-minute incubation at room temperature, 100 μL of 3 mol/KHCO3 were added to neutralize the acid. Samples were centrifuged at 3000 rpm for 15 minutes, and the supernatants were assayed for cAMP [26].
# [1] = test system: rats having hypoparathyroidism (parathyroid glands removed); experiment: Serum calcium after i.v. injection in rats with parathyroid glands removed; type: in vivo, rat
# From the text: The CAP rebound effect is believed to be the body's response to an administration of CIP. This response occurs when the parathyroid gland cells secrete CAP in an effort to return the CAP/CIP ratio to homeostasis with the pre-CIP administration levels. PTH antagonist administration is not accompanied by hypercalcemia and osteosarcoma, as with direct CAP administration. […] All of the rats had their parathyroid glands removed. Five rats received an i.v. injection of a saline control. The serum calcium of the control rats was measured and on average was lowered over time by about 0.18 mg/dl by virtue of a parathyroidectomy. Nine rats received an i.v. injection (10 μg/kg) of hPTH obtained from Bachem, AG of Bubendorf, Switzerland. The serum calcium of the hPTH rats was measured and on average was raised over time by about 0.65 mg/dl. Five rats received an equimolar i.v. injection of a PTH7-84 (an exemplary PTH antagonist) also obtained from Bachem, AG of Bubendorf, Switzerland. The serum calcium of the PTH antagonist rats was measured and on average was lowered over time by about 0.30 mg/dl. Finally, six rats received an i.v. injection comprised of hPTH (10 μg/kg) and an equimolar amount of PTH antagonist PTH7-84. The serum calcium of the hPTH/PTH antagonist rats was measured and on average remained substantially the same over time, raising only about 0.03 mg/dl.
# [2] = test system: Normal female Sprague-Dawley rats; experiment: Phosphaturic response (clearance studies: GFR and FEPO4) in rats; type: in vivo, rat; settings: for glomerular filtration rate (GFR), hPTH 7-84 given with hPTH 1-84: hPTH 7-84 given five minutes prior to hPTH 1-84, molar ratio 4:1, N=8, control period 2.1±0.1
# Method: Phosphaturic response. Normal female Sprague-Dawley rats weighing 225 to 250 g were prepared for clearance studies under light anesthesia. Polyethylene catheters (PE50) were placed in the femoeral artery for the collection of blood and measurement of blood pressure (Blood Pressure Analyzer; Micro-Medic, Inc., Louisville, Ky., USA), in the femoral vein for infusion and in the bladder for the collection of urine. Rats were placed in Plexiglass holders and allowed to recover from the effect of the anesthetic for one hour. A priming dose (0.6 mL) of chemical inulin in saline was administered over a period of three minutes to achieve a plasma inulin level between […]. A solution of saline containing inulin to maintain this level and calcium gluconate to deliver 0.5 mg. calcium was infused at the rate of 0.03 mL/min. After equilibration, a total of four 30-minute urine collections was obtained.
# To assess the effect of hPTH 1-84 on phosphate excretion, urine was collected during two control periods, after which rats received a priming bolus of 1.8 μg of HPTH 1-84 followed by a sustained infusion that delivered a total of 8.2 μg of I-PTH. After an equilibration period of 20 minutes, two 30-minute urine collections were obtained. In competition experiments, HPTH 7-84 was given five minutes prior to hPTH 1-84 at a molar ratio of 4:1.
# Blood samples and blood pressure measurements were recorded at the beginning and end of the baseline period, at the beginning of the PTH infusion period, and at the end of the study. The concentration of inulin in plasma and urine was determined by the method of Führ, Kaczmarczyk, and Kruttgen, Klin Wochenschr, 33:729-730 (1955). The estimation of the glomerular filtration rate (GFR) by inulin clearance and the calculation of the fractional urinary excretion rate of phosphorus (FEP04) were performed in the standard fashion. Blood samples were centrifuged, and plasma phosphorus and calcium concentrations were measured.
# [3] = test system: parathyroidectomized (PTX) rats; experiment: Calcemic response in parathyroidectomized (PTX) rats fed a 0.02% calcium diet; type: in vivo, rat; settings: hPTH 7-84 given 10 minutes prior to each hPTH 1-84 injection, 1:1 molar ratio, N=6
# Method: Calcemic response. Normal female Sprague-Dawley rats weighing 225 to 250 g (Harlan, Indianapolis, Ind., USA) were parathyroidectomized (PTX) and fed a 0.02% calcium diet. Rats with a plasma calcium below 7.0 mg/dL after overnight fasting were included in the study. A 20 μg dose of hPTH 1-84 or 7-84 was given intraperitoneally to PTX rats in four doses of 5 μg each at 30-minute intervals (0, 30, 60, and 90 minutes). For control studies, the rats received vehicle (saline solution) alone. Blood was drawn via the tail at 0, 60, 90, and 120 minutes. For competition experiments, rats received an injection of hPTH 7-84 10 minutes prior to each injection of hPTH 1-84. The molar ratio of hPTH 7-84:hPTH 1-84 was 1:1.
# Total plasma calcium levels were determined using an atomic absorption spectrophotometer (model 110B; Perkin Elmer, Norwalk, Conn., USA). Plasma phosphorus levels were determined using an autoanalyzer (COBAS MIRA Plus; Roche, Newark, N.J., USA).
Molecule,intracellular cAMP (ROS/17.2 cells),"cAMP production, dose dependence (ROS/17.2 cells; 10^-11 to 10^-8 mol/L peptide)","serum calcium raised over time (average) ([1]; i.v. injection 10 μg/kg hPTH alone, nine rats, saline control lowered about 0.18)","glomerular filtration rate (GFR) ([2]; rats infused with hPTH 1-84 alone, N=10, control period 1.8±0.3)","fractional excretion of phosphate (FEP04) ([2]; rats infused with hPTH 1-84 alone, N=10, control period 11.9±2.4)","serum calcium lowered over time (average) ([1]; i.v. injection of PTH7-84 alone, equimolar to 10 μg/kg hPTH, five rats, saline control lowered about 0.18)","serum calcium raised over time (average), co-injection with hPTH ([1]; i.v. injection of hPTH (10 μg/kg) and an equimolar amount of PTH7-84, six rats)",antagonist property compared with PTH3-34 ([1]; prevention of the hPTH-induced serum calcium increase in rats),decrease of the calcemic response induced by hPTH 1-84 [3],"decrease of the increase in FEP04 (phosphaturia) induced by hPTH 1-84 ([2]; hPTH 7-84 coadministered with hPTH 1-84, molar ratio 4:1)","glomerular filtration rate (GFR), hPTH 7-84 given with hPTH 1-84 [2]","glomerular filtration rate (GFR), hPTH 7-84 given with hPTH 1-84 ([2]; listed as 7-84 PTH)"
B1,738±4.13 nmol/well and 738±4.1 nmol/well,increased cAMP production in a does-dependent manner; also recorded: increased cAMP production in a dose-dependent manner,about 0.65 mg/dl,1.8 ± 0.1 mL/min,27.7±2.4%,,,,,,,
B2,no effect,,,,,about 0.30 mg/dl,about 0.03 mg/dl,much more potent in its antagonist property than the previously reported antagonist PTH3-34,94%,50.2%,2.6 ± 0.2 mL/min,significant increase
